The test system of data set [1] is blood-brain barrier. Briefly: Volume and duration of FUS-induced BBB opening with size-isolated microbubbles, by Gd-DTPA-BMA contrast-enhanced T1 MRI. In kind it is in vivo, mice (C57BL/6). The source says: Acoustic waves used were generated by a single-element, spherical-segment FUS transducer (center frequency: 1.5 MHz, focal depth: 60 mm, radius: 30 mm; Imasonic, France), which was driven by a function generator (Agilent, Palo Alto, Calif.) through a 50-dB power amplifier (E&I, Rochester, N.Y.) (for example as shown in FIG. 5). A central-void (radius: 11.2 mm) of the therapeutic transducer held a pulse-echo ultrasound transducer (center frequency: 10 MHz, focal length: 60 mm), which was used for imaging, with their two foci aligned. The imaging transducer was driven by a pulser-receiver (Olympus, Waltham, Mass.) connected to a digitizer (Gage Applied Technologies, Lachine, QC, Canada). A cone filled with degassed and distilled water was mounted onto the transducer system and was fitted with a polyurethane membrane (Trojan; Church & Dwight Co., Princeton, N.J.). The transducers were attached to a computer-controlled 3D positioning system (Velmex, Lachine, QC, Canada). The targeting procedure has been described herein. […]
BBB opening in the murine hippocampus was confirmed using a 9.4 T system (Broker Medical; Boston, Mass.). […] Vital signals were monitored and respiration rate was approximately 55 breaths/min. […] In the five cases where signal enhancement was detected on day 5, MRI sessions were repeated on day 7. […]

The subject of data set [2] is phosphorylated MAPK (T202-T204). Briefly: Immunohistochemistry DAB stain intensity after FUS and BDNF: phosphorylated MAPK. In kind it is in vivo, mice (C57Bl6). The procedure: (§1) Immunohistochemistry was performed only in the case of BDNF. Five primary antibodies were used: two against phosphorylated TrkB receptor (p-Y816 rabbit polyclonal [ab75173] and p-Y515, rabbit polyclonal [ab51187]) purchased from Abeam Inc. (Cambridge, Mass.), and three against phosphorylated Akt (p-S473 rabbit monoclonal [#4060]), phosphorylated MAPK (p-T202/T204 rabbit monoclonal [#4370]), and phosphorylated CREB (p-S133 rabbit monoclonal [#9198]), all purchased from Cell Signaling Technology (Danvers, Mass.). Slides containing thin frozen sections (5-10 μm) were dried and placed in a citrate buffer (pH 6.0) for antigen retrieval using a microwave. Slides were allowed to cool for 20 minutes prior to a PBS rinse (3×5 min) and then incubated in 0.3% hydrogen peroxide in PBS (five min) to block endogenous peroxidase activity. Slides were washed again in PBS (3×5 min) and blocked in 10% normal goat serum with 0.1% BSA for 20 minutes. After blocking solution was removed, the primary antibodies were diluted in DAKO antibody diluent solution (1:50-1:300) and incubated for 60 minutes at room temperature. Slides were washed in PBS for five min and incubated with biotinylated secondary antibody (goat anti-rabbit 1:200; Vector Laboratories, Burlingame, Calif.) for 30 minutes at room temperature. […]

For data set [3] the following is noted: in vivo; cited from earlier work.
Data set [4] deals with phosphorylated Akt (S473). Description: Immunohistochemistry DAB stain intensity after FUS and BDNF: phosphorylated Akt. It is filed as in vivo, mice (C57Bl6). The procedure:
as §1

Data set [5] concerns phosphorylated CREB (S133). Briefly: Immunohistochemistry DAB stain intensity after FUS and BDNF: phosphorylated CREB. In kind it is in vivo, mice (C57Bl6). On the procedure: as §1
The test system of data set [6] is phosphorylated TrkB receptor (pTrkB Y816 and Y515). Briefly: Immunohistochemistry DAB stain intensity after FUS and BDNF: phosphorylated TrkB. It is filed as in vivo, mice (C57Bl6). On the procedure:
as §1

Data set [7] concerns ACHE (acetylcholine esterase). To be noted: dose-dependent induction of ACHE, rat basal forebrain primary septal culture; according to the supplier; cited from earlier work.
The subject of data set [8] is blood-brain barrier. Briefly: Delivery of Alexa Fluor 594-tagged BDNF across the FUS-opened BBB, fluorescence of brain sections. The following applies: mouse sacrificed 20 min after sonication.
Setting [9] is: BDNF-administered mice, sacrificed 20-30 min, N=3.

Consider `CNC(=O)CN(CCN(CCN(CC(=O)[O-])CC(=O)NC)CC(=O)[O-])CC(=O)[O-].[Gd+3]` [Gd-DTPA-BMA], for which the “time to peak signal enhancement in the sonicated hippocampus after IP injection” value in data set [1] was “approximately 1 h”.

B1: BDNF: BDNF Human Recombinant produced in Escherichia Coli, homodimer, non-glycosylated, 2×119 amino acids, 27 kDa (protein, UniProt P23560 19-247, looked up)
Neurotrophic factor BDNF …: APMKEANIRGQGGLAYPGVRTHGTLESVNGPKAGSRGLTSLADTFEHVIEELLDEDQKVRPNEENNKDADLYTSRVMLSSQVPLEPPLLFLLEEYKNYLDAANMSMRVRRHSDPARRGELSVCDSISEWVTAADKKTAVDMSGGTVTVLEKVPVSKGQLKQYFYETKCNPMGYTKEGCRGIDKRHWNSQCRTTQSYVRALTMDSKKRIGWRFIRIDTSCVCTLTIKRGR
modifications: E. coli-expressed, non-glycosylated homodimer
notes: BDNF Human Recombinant produced in Escherichia Coli, homodimer, non-glycosylated, 2×119 amino acids, 27 kDa
Take B1: the “mean percent change in DAB stain intensity between left and right hippocampal regions, pMAPK” value in data set [2] (setting [9]) was 60.58%. Moreover, the “difference in DAB intensity between sonicated and control hippocampus, pMAPK” value in data set [2] (mouse sacrificed 3 min) was “No difference in DAB intensity”. The “half-life of circulating BDNF” value in data set [3] is recorded as “less than 10 min”. Also, in data set [4] (3-min case), the “difference in DAB intensity between left sonicated hippocampus and control, pAkt” value is on record as “not”. In data set [4] (sacrificed 20-30 min), the “mean percent change in DAB stain intensity, pAkt, BDNF-administered mice vs control mice” value is on record as “similar”. The “difference in DAB intensity between left sonicated hippocampus and control, pCREB” value in data set [5] (3-min case) is “not”. In addition, the “mean percent change in DAB stain intensity between left and right hippocampal regions, pCREB” value in data set [5] (setting [9]) worked out at 56.91%. Also, the “mean percent change in DAB stain intensity between left and right hippocampal regions, pTrkB (Y515 and Y816 combined)” value in data set [6] (setting [9]) worked out at 25.22%. Besides, the “difference in DAB intensity between left sonicated hippocampus and control, pTrkB” value in data set [6] (mouse expiring 3 min after BDNF injection) is recorded as “observed”. The ED50 in data set [7] was 0.05 µg/mL. In addition, in data set [8], the “fluorescent intensity, sonicated hippocampus (left) vs un-sonicated hippocampus (right)” value is given as “much higher fluorescent intensity”.

The record behind these values is US9358023B2, “Systems and methods for opening of a tissue barrier” (priority 2009, dated 2016).
